How the values were obtained:
Details in all cases: protein: recombinant; tags: GFP-GST (N-term); label: Atto647N 5' on strand 1; blunt
Rad54 S816A/S817A = molecular target: T1, Rad54 S816A/S817A (Saccharomyces cerevisiae, UniProt P32863 1-898, S816A;S817A); test: EMSA; 3 mM Mg2+; Kd slightly above WT, not significant; value only in figure; EMSA: 35 mM Tris-Cl pH 7.5, 3 mM MgCl2, 50 mM KCl, 1 mM DTT, 10% glycerol, 10 nM DNA, 30 C, 5 min, 8% native PAGE in 0.5x TBE; DNA curtains: HR buffer (composition not given), 10 nM GFP-Rad54, flow 0.2 mL/min
T1 sequence: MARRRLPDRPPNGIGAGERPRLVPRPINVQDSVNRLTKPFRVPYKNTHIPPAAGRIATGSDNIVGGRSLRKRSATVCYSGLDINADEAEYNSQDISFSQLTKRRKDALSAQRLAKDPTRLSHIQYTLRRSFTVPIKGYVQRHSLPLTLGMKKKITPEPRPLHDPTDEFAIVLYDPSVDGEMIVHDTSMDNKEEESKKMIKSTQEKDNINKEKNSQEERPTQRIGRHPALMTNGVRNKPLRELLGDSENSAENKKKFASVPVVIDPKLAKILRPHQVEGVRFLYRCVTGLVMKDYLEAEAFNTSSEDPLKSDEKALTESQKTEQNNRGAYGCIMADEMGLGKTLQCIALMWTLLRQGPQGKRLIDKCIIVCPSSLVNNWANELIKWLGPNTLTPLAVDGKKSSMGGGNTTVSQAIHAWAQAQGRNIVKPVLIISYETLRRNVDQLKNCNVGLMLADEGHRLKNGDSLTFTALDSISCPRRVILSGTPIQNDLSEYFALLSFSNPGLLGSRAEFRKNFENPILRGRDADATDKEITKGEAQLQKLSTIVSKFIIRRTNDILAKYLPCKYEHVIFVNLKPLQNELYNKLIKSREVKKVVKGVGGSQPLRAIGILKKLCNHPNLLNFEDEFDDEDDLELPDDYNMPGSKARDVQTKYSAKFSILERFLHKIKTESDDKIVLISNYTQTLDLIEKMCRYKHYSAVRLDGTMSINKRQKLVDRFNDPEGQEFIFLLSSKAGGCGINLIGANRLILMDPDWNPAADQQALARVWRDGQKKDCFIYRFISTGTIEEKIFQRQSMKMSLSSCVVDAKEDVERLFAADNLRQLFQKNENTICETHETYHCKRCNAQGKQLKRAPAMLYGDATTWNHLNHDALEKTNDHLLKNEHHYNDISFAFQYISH

Rad54 S816D/S817D = molecular target: T2, Rad54 S816D/S817D (Saccharomyces cerevisiae, UniProt P32863 1-898, S816D;S817D); test: EMSA; apparent Kd; Hill fit; 3 mM Mg2+; p = 0.008 vs WT; EMSA: 35 mM Tris-Cl pH 7.5, 3 mM MgCl2, 50 mM KCl, 1 mM DTT, 10% glycerol, 10 nM DNA, 30 C, 5 min, 8% native PAGE in 0.5x TBE; DNA curtains: HR buffer (composition not given), 10 nM GFP-Rad54, flow 0.2 mL/min
T2 sequence: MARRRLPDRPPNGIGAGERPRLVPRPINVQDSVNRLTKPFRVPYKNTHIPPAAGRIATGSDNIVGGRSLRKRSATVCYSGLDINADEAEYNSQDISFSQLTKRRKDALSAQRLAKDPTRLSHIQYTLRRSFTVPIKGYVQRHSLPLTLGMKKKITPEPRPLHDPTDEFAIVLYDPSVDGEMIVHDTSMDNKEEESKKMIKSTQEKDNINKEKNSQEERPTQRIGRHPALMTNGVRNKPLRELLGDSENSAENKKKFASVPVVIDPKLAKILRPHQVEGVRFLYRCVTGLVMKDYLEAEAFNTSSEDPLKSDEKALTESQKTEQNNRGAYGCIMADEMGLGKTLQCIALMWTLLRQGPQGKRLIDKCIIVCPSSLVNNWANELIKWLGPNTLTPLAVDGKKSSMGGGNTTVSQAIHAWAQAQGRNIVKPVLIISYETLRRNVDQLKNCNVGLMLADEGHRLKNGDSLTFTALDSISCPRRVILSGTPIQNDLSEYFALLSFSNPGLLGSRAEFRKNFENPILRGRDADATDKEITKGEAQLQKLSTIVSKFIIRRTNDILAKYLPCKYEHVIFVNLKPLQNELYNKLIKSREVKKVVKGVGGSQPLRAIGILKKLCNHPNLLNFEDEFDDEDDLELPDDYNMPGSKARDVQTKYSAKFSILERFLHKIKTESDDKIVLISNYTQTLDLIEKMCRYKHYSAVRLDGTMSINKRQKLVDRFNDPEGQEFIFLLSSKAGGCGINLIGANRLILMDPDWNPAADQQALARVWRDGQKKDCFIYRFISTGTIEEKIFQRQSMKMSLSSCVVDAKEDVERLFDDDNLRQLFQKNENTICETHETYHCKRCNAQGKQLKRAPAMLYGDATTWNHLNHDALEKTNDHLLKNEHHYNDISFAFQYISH

[1] = molecular target: T3, Rad54 D525S/D527S/S816D/S817D (Saccharomyces cerevisiae, UniProt P32863 1-898, D525S;D527S;S816D;S817D); test: EMSA; apparent Kd; Hill fit; 3 mM Mg2+; EMSA: 35 mM Tris-Cl pH 7.5, 3 mM MgCl2, 50 mM KCl, 1 mM DTT, 10% glycerol, 10 nM DNA, 30 C, 5 min, 8% native PAGE in 0.5x TBE; DNA curtains: HR buffer (composition not given), 10 nM GFP-Rad54, flow 0.2 mL/min
T3 sequence: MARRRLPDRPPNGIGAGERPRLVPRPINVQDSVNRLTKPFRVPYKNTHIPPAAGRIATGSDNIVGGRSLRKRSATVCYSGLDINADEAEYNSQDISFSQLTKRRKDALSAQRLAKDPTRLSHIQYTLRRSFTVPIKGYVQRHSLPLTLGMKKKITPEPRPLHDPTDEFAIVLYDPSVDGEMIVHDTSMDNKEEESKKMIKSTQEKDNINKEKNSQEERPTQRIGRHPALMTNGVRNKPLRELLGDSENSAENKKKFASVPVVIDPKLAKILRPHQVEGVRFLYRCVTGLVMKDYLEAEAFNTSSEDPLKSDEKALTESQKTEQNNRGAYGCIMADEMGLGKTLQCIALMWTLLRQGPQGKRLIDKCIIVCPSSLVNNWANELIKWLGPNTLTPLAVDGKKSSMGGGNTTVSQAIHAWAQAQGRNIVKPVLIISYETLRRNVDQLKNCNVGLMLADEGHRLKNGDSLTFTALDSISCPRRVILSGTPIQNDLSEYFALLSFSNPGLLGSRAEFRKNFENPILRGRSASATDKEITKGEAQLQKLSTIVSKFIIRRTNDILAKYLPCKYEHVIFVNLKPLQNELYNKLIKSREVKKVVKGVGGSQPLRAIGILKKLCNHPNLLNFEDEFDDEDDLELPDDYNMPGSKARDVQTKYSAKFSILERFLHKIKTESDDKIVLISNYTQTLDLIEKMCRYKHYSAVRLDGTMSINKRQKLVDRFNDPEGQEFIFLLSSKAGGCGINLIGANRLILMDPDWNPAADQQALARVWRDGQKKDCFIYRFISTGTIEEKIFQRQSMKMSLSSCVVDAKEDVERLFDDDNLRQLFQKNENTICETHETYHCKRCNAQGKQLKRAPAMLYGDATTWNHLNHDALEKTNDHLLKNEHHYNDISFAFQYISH

B1: 90 bp dsDNA (90-mer) (dsDNA)
DNA 1: GATGTTCTGCTGGATATGCACTTTTCCGGGCTGACGTACACCGTGCTCAGCCTGTTTTTCAGCGATCCGGATATGCATCCGCTGGATTTC
DNA 2: GAAATCCAGCGGATGCATATCCGGATCGCTGAAAAACAGGCTGAGCACGGTGTACGTCAGCCCGGAAAAGTGCATATCCAGCAGAACATC
Q: What does the source list for B1?
A: binding result (Rad54 S816A/S817A): binds; Kd (Rad54 S816D/S817D): 41 nM; Kd [1]: ~18 nM

Source: article PMC13138755, “Potential Rad54 separation of function mutation highlights unique roles during homologous recombination”
